# Experimental data: the supplement of paper PMC9112550, “Optimization of the antimicrobial peptide Bac7 by deep mutational scanning” (BMC Biology, 2022)
# Test system: Escherichia coli TOP10
# Experiment: shrunken log2 fold change of peptide-encoding DNA abundance (4.5 h post-induction vs induction); higher = less antimicrobial activity (less host growth inhibition)
# Conditions: time post-induction: 4.5 h; library: site-saturation at positions 5, 18, 19, 20
# 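Also: peptides expressed intracellularly from a pBAD plasmid library in pooled LB shake-flask culture, induced with 0.3% L-arabinose, DNA abundance read by NGS, three biological replicates, DESeq2 with apeglm shrinkage.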
row,Sequence,shrunken log2 fold change
1,RRIRTRPPRLPRPRPRPVRAPRP,0.514
2,RRIRPRPPRLPRPRPRPAPEPRP,0.346
3,RRIRRRPPRLPRPRPRPTICPRP,0.394
4,RRIRMRPPRLPRPRPRPMGFPRP,-0.0135
5,RRIRGRPPRLPRPRPRPEPYPRP,0.141
6,RRIRERPPRLPRPRPRPNCRPRP,-0.238
7,RRIRGRPPRLPRPRPRPNLRPRP,0.283
8,RRIRVRPPRLPRPRPRPFHYPRP,-0.318
9,RRIRYRPPRLPRPRPRPHWCPRP,-0.0867
10,RRIRGRPPRLPRPRPRPFMSPRP,-0.192
11,RRIRRRPPRLPRPRPRPAWQPRP,0.561
12,RRIRPRPPRLPRPRPRPPPWPRP,0.588
13,RRIRVRPPRLPRPRPRPGEWPRP,-0.00804
14,RRIRPRPPRLPRPRPRPSKEPRP,-0.374
15,RRIRWRPPRLPRPRPRPCCCPRP,0.129
16,RRIRLRPPRLPRPRPRPFNDPRP,0.0825
17,RRIRGRPPRLPRPRPRPVMDPRP,0.96
18,RRIRLRPPRLPRPRPRPTVWPRP,0.387
19,RRIRPRPPRLPRPRPRPGFAPRP,0.318
20,RRIRGRPPRLPRPRPRPQIRPRP,0.808
21,RRIRTRPPRLPRPRPRPYIWPRP,-0.329
22,RRIRRRPPRLPRPRPRPRYCPRP,0.216
23,RRIRNRPPRLPRPRPRPAKFPRP,-0.179
24,RRIRKRPPRLPRPRPRPKNYPRP,0.0189
25,RRIRVRPPRLPRPRPRPNASPRP,0.147

row,Sequence,shrunken log2 fold change
1,RRIRKRPPRLPRPRPRPMYAPRP,-0.145
2,RRIRRRPPRLPRPRPRPDKQPRP,0.0803
3,RRIRFRPPRLPRPRPRPFQIPRP,-0.0567
4,RRIRNRPPRLPRPRPRPNTMPRP,0.402
5,RRIRNRPPRLPRPRPRPYQRPRP,-0.0199
6,RRIRPRPPRLPRPRPRPCSTPRP,-0.173
7,RRIRHRPPRLPRPRPRPEYKPRP,-0.467
8,RRIRVRPPRLPRPRPRPIGMPRP,0.211
9,RRIRFRPPRLPRPRPRPGFMPRP,-0.242
10,RRIRHRPPRLPRPRPRPMWLPRP,-0.362
11,RRIRNRPPRLPRPRPRPCLCPRP,-0.275
12,RRIRCRPPRLPRPRPRPKIYPRP,-0.643
13,RRIRGRPPRLPRPRPRPEASPRP,0.708
14,RRIRKRPPRLPRPRPRPMCGPRP,0.0595
15,RRIRARPPRLPRPRPRPLCLPRP,0.132
16,RRIRVRPPRLPRPRPRPLWEPRP,0.203
17,RRIRWRPPRLPRPRPRPATQPRP,0.105
18,RRIRCRPPRLPRPRPRPLNPPRP,-0.185
19,RRIRFRPPRLPRPRPRPIRKPRP,-0.0472
20,RRIRNRPPRLPRPRPRPNPCPRP,-0.1
21,RRIRIRPPRLPRPRPRPKVYPRP,-0.394
22,RRIRQRPPRLPRPRPRPPEQPRP,0.00242
23,RRIRHRPPRLPRPRPRPFASPRP,-0.182
24,RRIRFRPPRLPRPRPRPGWMPRP,-0.0518
25,RRIRQRPPRLPRPRPRPTHVPRP,-0.0938

row,Sequence,shrunken log2 fold change
1,RRIRFRPPRLPRPRPRPPWQPRP,0.361
2,RRIRVRPPRLPRPRPRPKFAPRP,0.0713
3,RRIRFRPPRLPRPRPRPPVWPRP,0.622
4,RRIRPRPPRLPRPRPRPGRVPRP,0.318
5,RRIRWRPPRLPRPRPRPYLCPRP,-0.447
6,RRIRYRPPRLPRPRPRPIRSPRP,-0.214
7,RRIRLRPPRLPRPRPRPTKVPRP,-0.0842
8,RRIRQRPPRLPRPRPRPIHKPRP,-0.651
9,RRIRTRPPRLPRPRPRPIGEPRP,-0.195
10,RRIRPRPPRLPRPRPRPCKIPRP,-0.0494
11,RRIRNRPPRLPRPRPRPQTRPRP,0.0246
12,RRIRRRPPRLPRPRPRPDGRPRP,0.0193
13,RRIRDRPPRLPRPRPRPWNEPRP,-0.195
14,RRIRCRPPRLPRPRPRPKVMPRP,-0.184
15,RRIRTRPPRLPRPRPRPNQKPRP,-0.306
16,RRIRHRPPRLPRPRPRPFCNPRP,0.00929
17,RRIRQRPPRLPRPRPRPPTHPRP,0.106
18,RRIRPRPPRLPRPRPRPWIAPRP,0.0544
19,RRIRTRPPRLPRPRPRPMRQPRP,-0.01
20,RRIRERPPRLPRPRPRPMDMPRP,-0.189
21,RRIRCRPPRLPRPRPRPGVFPRP,-0.00263
22,RRIRQRPPRLPRPRPRPSGHPRP,-0.0673
23,RRIRCRPPRLPRPRPRPCDLPRP,3.04
24,RRIRMRPPRLPRPRPRPKYFPRP,-0.186
25,RRIRRRPPRLPRPRPRPCQIPRP,-0.211

row,Sequence,shrunken log2 fold change
1,RRIRWRPPRLPRPRPRPSSKPRP,-0.369
2,RRIRARPPRLPRPRPRPVFDPRP,0.321
3,RRIRKRPPRLPRPRPRPGSAPRP,0.843
4,RRIRHRPPRLPRPRPRPVVMPRP,-0.245
5,RRIRRRPPRLPRPRPRPWSIPRP,0.0651
6,RRIRPRPPRLPRPRPRPCIKPRP,-0.441
7,RRIRYRPPRLPRPRPRPYLNPRP,-0.802
8,RRIRNRPPRLPRPRPRPNVCPRP,0.00455
9,RRIRDRPPRLPRPRPRPDHCPRP,-0.00174
10,RRIRHRPPRLPRPRPRPKKEPRP,-0.0501
11,RRIRDRPPRLPRPRPRPINSPRP,-0.292
12,RRIRDRPPRLPRPRPRPTEMPRP,0.367
13,RRIRLRPPRLPRPRPRPCHCPRP,-0.0469
14,RRIRARPPRLPRPRPRPFCFPRP,0.42
15,RRIRSRPPRLPRPRPRPKHMPRP,0.00683
16,RRIRCRPPRLPRPRPRPKQDPRP,0.0895
17,RRIRWRPPRLPRPRPRPVWSPRP,0.163
18,RRIRPRPPRLPRPRPRPLENPRP,-0.00388
19,RRIRHRPPRLPRPRPRPKLHPRP,-0.271
20,RRIRSRPPRLPRPRPRPYAKPRP,-0.123
21,RRIRIRPPRLPRPRPRPCVVPRP,-0.00586
22,RRIRERPPRLPRPRPRPESWPRP,0.343
23,RRIRRRPPRLPRPRPRPRKDPRP,0.302
24,RRIRQRPPRLPRPRPRPAEDPRP,0.0312
25,RRIRMRPPRLPRPRPRPSTDPRP,0.949

row,Sequence,shrunken log2 fold change
1,RRIRARPPRLPRPRPRPFTLPRP,-0.543
2,RRIRRRPPRLPRPRPRPAAMPRP,0.516
3,RRIRCRPPRLPRPRPRPTIMPRP,-0.562
4,RRIRMRPPRLPRPRPRPSSLPRP,-0.156
5,RRIRMRPPRLPRPRPRPWGWPRP,1.08
6,RRIRSRPPRLPRPRPRPNECPRP,-0.136
7,RRIRRRPPRLPRPRPRPWCKPRP,-0.0285
8,RRIRERPPRLPRPRPRPVYMPRP,-0.481
9,RRIRKRPPRLPRPRPRPSITPRP,0.846
10,RRIRHRPPRLPRPRPRPTINPRP,-0.459
11,RRIRTRPPRLPRPRPRPGWPPRP,0.576
12,RRIRQRPPRLPRPRPRPTENPRP,0.0631
13,RRIRKRPPRLPRPRPRPTNMPRP,-0.155
14,RRIRFRPPRLPRPRPRPEELPRP,0.0201
15,RRIRWRPPRLPRPRPRPTRNPRP,-0.0437
16,RRIRKRPPRLPRPRPRPNYLPRP,-0.0798
17,RRIRVRPPRLPRPRPRPYMQPRP,-0.547
18,RRIRYRPPRLPRPRPRPMRAPRP,0.605
19,RRIRHRPPRLPRPRPRPRLLPRP,-0.113
20,RRIRPRPPRLPRPRPRPEKEPRP,-0.143
21,RRIRPRPPRLPRPRPRPQHNPRP,-0.536
22,RRIRRRPPRLPRPRPRPCYEPRP,0.107
23,RRIRMRPPRLPRPRPRPLKYPRP,-0.0456
24,RRIRNRPPRLPRPRPRPKYFPRP,-0.0727
25,RRIRFRPPRLPRPRPRPTCAPRP,0.564

row,Sequence,shrunken log2 fold change
1,RRIRGRPPRLPRPRPRPRNWPRP,1.35
2,RRIRMRPPRLPRPRPRPQTPPRP,2.18
3,RRIRVRPPRLPRPRPRPDIEPRP,-0.0848
4,RRIRNRPPRLPRPRPRPWLPPRP,-0.0828
5,RRIRTRPPRLPRPRPRPAGPPRP,-0.257
6,RRIRQRPPRLPRPRPRPSVFPRP,-0.143
7,RRIRIRPPRLPRPRPRPPNIPRP,-0.0703
8,RRIRHRPPRLPRPRPRPVNCPRP,0.00367
9,RRIRGRPPRLPRPRPRPQDNPRP,0.0555
10,RRIRFRPPRLPRPRPRPWWTPRP,0.0245
11,RRIRDRPPRLPRPRPRPISQPRP,0.12
12,RRIRSRPPRLPRPRPRPHEYPRP,0.00184
13,RRIRTRPPRLPRPRPRPNVFPRP,0.0305
14,RRIRERPPRLPRPRPRPCYKPRP,-0.901
15,RRIRQRPPRLPRPRPRPEWCPRP,-0.0929
16,RRIRQRPPRLPRPRPRPLGKPRP,-0.0227
17,RRIRYRPPRLPRPRPRPVYIPRP,-1.27
18,RRIRQRPPRLPRPRPRPIEFPRP,-1.79
19,RRIRERPPRLPRPRPRPTIIPRP,-0.664
20,RRIRCRPPRLPRPRPRPDQNPRP,-0.138
21,RRIRRRPPRLPRPRPRPGIWPRP,0.455
22,RRIRTRPPRLPRPRPRPLKDPRP,0.0122
23,RRIRGRPPRLPRPRPRPINWPRP,0.193
24,RRIRHRPPRLPRPRPRPMPQPRP,0.235
25,RRIRWRPPRLPRPRPRPNCYPRP,-0.0773
